In KR20130140557A (dated 2013):

Assays:
Fc = assay: mono phage ELISA, Fc coated 100 ng/well, anti-M13-HRP
a-Myc = assay: mono phage ELISA, a-Myc coated 100 ng/well, anti-M13-HRP
[1] = molecular target: T1, IL-6R-Fc 항원 (IL-6R full domain 단백질) (human, UniProt P08887 20-365); assay: mono phage ELISA, antigen coated 100 ng/well, anti-M13-HRP
T1 construct: domain: IL-6R full domain; Expressed transiently in HEK293E and purified from the supernatant; also called IL-6R 항원; not shown: Fc part from expression vector pYK 604
T1 sequence (looked up): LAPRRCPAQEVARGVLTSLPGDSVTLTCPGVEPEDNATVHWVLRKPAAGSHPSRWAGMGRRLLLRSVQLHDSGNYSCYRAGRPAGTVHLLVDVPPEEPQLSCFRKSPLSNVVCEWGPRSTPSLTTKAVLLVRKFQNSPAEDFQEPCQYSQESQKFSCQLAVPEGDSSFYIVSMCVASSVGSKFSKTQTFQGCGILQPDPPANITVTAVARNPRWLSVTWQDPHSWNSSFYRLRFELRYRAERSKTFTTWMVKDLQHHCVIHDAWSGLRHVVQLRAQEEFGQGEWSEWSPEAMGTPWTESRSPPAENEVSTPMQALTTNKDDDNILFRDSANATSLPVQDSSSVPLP

[2] = molecular target: T1, IL-6R-Fc 항원 (IL-6R full domain 단백질); assay: mono phage ELISA, ratio of OD on IL-6R full to OD on a-myc
[3] = molecular target: T1, IL-6R-Fc 항원 (IL-6R full domain 단백질); assay: ELISA (summary table; same value as the 3rd table)
[4] = molecular target: T1, IL-6R-Fc 항원 (IL-6R full domain 단백질); assay: ELISA titration on coated IL-6R, anti-Fab-HRP
[5] = molecular target: T1, IL-6R-Fc 항원 (IL-6R full domain 단백질); assay: ELISA, coated IL-6R 100 ng/well, anti-Fab-HRP

B1: 모노 파아지 클론 B10 (scFv on phage) (scFv)
chain: DVHSQVQLVESGGGLVQPGGSLRLSCAASGFIFDDYAMFWVRQVPGKGLEWVAGINWNGNGIGYGDSVRGRFIISRDNARNSLDLQMNSLRAEDTAVYYCARPSLYGGNSEFDLWGQGTLVTVSSDVHSQLVLTQPPSVSGAPGQTVTISCTGPTIGAGYDVHWYQQLPGAAPKLLIYGNLNRPSGVPDRFSGSKSGTSASLAITDLQAEDEADYYCHTYDSSLSGSWVFGGGTKLTVL
Fc
  OD 490 nm (Fc): 0.0406 OD490
a-Myc
  OD 490 nm (a-myc): 0.113 OD490
[1]
  OD 490 nm (IL-6R full): 2.1 OD490
[2]
  Ratio (IL-6R full / a-myc): 18.6

B2: 모노 파아지 클론 D2 (scFv on phage) (scFv)
chain: DVHSQVQLVESGAEVKKPGSSVKVSCKGSGDTFPNYAINWVRQAPGQGPEWMGRIIPMLGTSDYAEKFQGRVTITADKSTNTAYMGLNSLRSEDTAVYYCVKGPRYYGTDSYYLEKWGQGTMVTVSSDVHSQLVLTQPPSVSGAPGQTVTISCTGPTIGAGYDVHWYQQLPGAAPKLLIYGNLNRPSGVPDRFSGSKSGTSASLAITDLQAEDEADYYCHTYDSSLSGSWVFGGGTKLTVL
Fc
  OD 490 nm (Fc): 0.0415 OD490
a-Myc
  OD 490 nm (a-myc): 0.303 OD490
[1]
  OD 490 nm (IL-6R full): 2.34 OD490
[2]
  Ratio (IL-6R full / a-myc): 7.71

B3: 모노 파아지 클론 F2 (scFv on phage) (scFv)
chain: DVHSQVQLVESGAEVKKPGASVKVSCKASGYTFTNYYMHWVRQAPGQGLEWMGIINPSGGNTGYAQKFQGRVTMTRDMSTSTAYMELSSLRSEDTAVYYCARGLPWGENGLDVWGQGTTVTVSSDVHSQLVLTQPSSVSGAPGQTVTISCTGSSSNIGAGYDVHWYQQLPGTAPKVLIYGDSDRPSGVPDRFSGSKSATSASLAITGLQAEDEADYYCQSYDSSLSAYVFGTGTKVTVL
Fc
  OD 490 nm (Fc): 0.0405 OD490
a-Myc
  OD 490 nm (a-myc): 0.287 OD490
[1]
  OD 490 nm (IL-6R full): 2.86 OD490
[2]
  Ratio (IL-6R full / a-myc): 9.96

B4: 모노 파아지 클론 A7 (scFv on phage) (scFv)
chain: DVHSQMQLVESGGGLVQPGTSLRLSCAASGFKFEDYAMHWVRQAPGKGLEWVSGVSWNSGTIAYVDSVKGRFTISRDNAKNSLYLQMNSLRAEDTAVYYCARDFTYFYESSGYYAFDLWGQGTMVTVSSDVHSQLVLTQPPSVSGAPGQRVTISCTGTNSNIGAGYDVHWYQQVPGTTPKLLIYGNTNRPSGVPDRFSGSKSGTSASLAITGLQAEDGGDYYCQSFDSSLTGSVFGTGTKVTVL
Fc
  OD 490 nm (Fc): 0.0421 OD490
a-Myc
  OD 490 nm (a-myc): 0.0797 OD490
[1]
  OD 490 nm (IL-6R full): 2.48 OD490
[2]
  Ratio (IL-6R full / a-myc): 31.1

B5: 항 IL-6R 단클론 항체 F2 (IgG) (antibody, V domains shown)
VH: QVQLVESGAEVKKPGASVKVSCKASGYTFTNYYMHWVRQAPGQGLEWMGIINPSGGNTGYAQKFQGRVTMTRDMSTSTAYMELSSLRSEDTAVYYCARGLPWGENGLDVWGQGTTVTVSS
VL: SQLVLTQPSSVSGAPGQTVTISCTGSSSNIGAGYDVHWYQQLPGTAPKVLIYGDSDRPSGVPDRFSGSKSATSASLAITGLQAEDEADYYCQSYDSSLSAYVFGTGTKVTVL
notes: Phage clone converted to whole IgG
[3]
  Kd: 0.35 nM
[4]
  Kd: 0.35 nM
[5]
  OD 490 nm at 0.02441 nM antibody: 0.535 OD490
  OD 490 nm at 0.04883 nM antibody: 0.584 OD490
  OD 490 nm at 0.09766 nM antibody: 0.743 OD490
  OD 490 nm at 0.19531 nM antibody: 1.01 OD490
  OD 490 nm at 0.39063 nM antibody: 1.41 OD490
  OD 490 nm at 0.78125 nM antibody: 1.9 OD490
  OD 490 nm at 1.5625 nM antibody: 2.43 OD490
  OD 490 nm at 3.125 nM antibody: 2.72 OD490
  OD 490 nm at 6.25 nM antibody: 2.71 OD490
  OD 490 nm at 12.5 nM antibody: 2.92 OD490
  OD 490 nm at 25 nM antibody: 2.89 OD490
  OD 490 nm at 50 nM antibody: 2.99 OD490

B6: 항 IL-6R 단클론 항체 A7 (IgG) (antibody, V domains shown)
VH: QMQLVESGGGLVQPGTSLRLSCAASGFKFEDYAMHWVRQAPGKGLEWVSGVSWNSGTIAYVDSVKGRFTISRDNAKNSLYLQMNSLRAEDTAVYYCARDFTYFYESSGYYAFDLWGQGTMVTVSS
VL: SQLVLTQPPSVSGAPGQRVTISCTGTNSNIGAGYDVHWYQQVPGTTPKLLIYGNTNRPSGVPDRFSGSKSGTSASLAITGLQAEDGGDYYCQSFDSSLTGSVFGTGTKVTVL
notes: as for B5
[3]
  Kd: 2.3 nM
[4]
  Kd: 2.3 nM
[5]
  OD 490 nm at 0.02441 nM antibody: 0.514 OD490
  OD 490 nm at 0.04883 nM antibody: 0.498 OD490
  OD 490 nm at 0.09766 nM antibody: 0.497 OD490
  OD 490 nm at 0.19531 nM antibody: 0.546 OD490
  OD 490 nm at 0.39063 nM antibody: 0.618 OD490
  OD 490 nm at 0.78125 nM antibody: 0.782 OD490
  OD 490 nm at 1.5625 nM antibody: 1.17 OD490
  OD 490 nm at 3.125 nM antibody: 1.64 OD490
  OD 490 nm at 6.25 nM antibody: 2.13 OD490
  OD 490 nm at 12.5 nM antibody: 2.58 OD490
  OD 490 nm at 25 nM antibody: 2.84 OD490
  OD 490 nm at 50 nM antibody: 3.1 OD490

B7: 항 IL-6R 단클론 항체 B10 (IgG) (antibody, V domains shown)
VH: QVQLVESGGGLVQPGGSLRLSCAASGFIFDDYAMFWVRQVPGKGLEWVAGINWNGNGIGYGDSVRGRFIISRDNARNSLDLQMNSLRAEDTAVYYCARPSLYGGNSEFDLWGQGTLVTVSS
VL: SQLVLTQPPSVSGAPGQTVTISCTGPTIGAGYDVHWYQQLPGAAPKLLIYGNLNRPSGVPDRFSGSKSGTSASLAITDLQAEDEADYYCHTYDSSLSGSWVFGGGTKLTVL
notes: as for B5
[3]
  Kd: 4.3 nM
[4]
  Kd: 4.3 nM
[5]
  OD 490 nm at 0.02441 nM antibody: 0.468 OD490
  OD 490 nm at 0.04883 nM antibody: 0.451 OD490
  OD 490 nm at 0.09766 nM antibody: 0.462 OD490
  OD 490 nm at 0.19531 nM antibody: 0.429 OD490
  OD 490 nm at 0.39063 nM antibody: 0.476 OD490
  OD 490 nm at 0.78125 nM antibody: 0.5 OD490
  OD 490 nm at 1.5625 nM antibody: 0.607 OD490
  OD 490 nm at 3.125 nM antibody: 0.761 OD490
  OD 490 nm at 6.25 nM antibody: 1.04 OD490
  OD 490 nm at 12.5 nM antibody: 1.39 OD490
  OD 490 nm at 25 nM antibody: 1.78 OD490
  OD 490 nm at 50 nM antibody: 2.09 OD490

B8: 항 IL-6R 단클론 항체 D2 (IgG) (antibody, V domains shown)
VH: QVQLVESGAEVKKPGSSVKVSCKGSGDTFPNYAINWVRQAPGQGPEWMGRIIPMLGTSDYAEKFQGRVTITADKSTNTAYMGLNSLRSEDTAVYYCVKGPRYYGTDSYYLEKWGQGTMVTVSS
VL: SQLVLTQPPSVSGAPGQTVTISCTGPTIGAGYDVHWYQQLPGAAPKLLIYGNLNRPSGVPDRFSGSKSGTSASLAITDLQAEDEADYYCHTYDSSLSGSWVFGGGTKLTVL
notes: as for B5
[3]
  Kd: 7.5 nM
[4]
  Kd: 7.5 nM
[5]
  OD 490 nm at 0.02441 nM antibody: 0.449 OD490
  OD 490 nm at 0.04883 nM antibody: 0.451 OD490
  OD 490 nm at 0.09766 nM antibody: 0.45 OD490
  OD 490 nm at 0.19531 nM antibody: 0.469 OD490
  OD 490 nm at 0.39063 nM antibody: 0.473 OD490
  OD 490 nm at 0.78125 nM antibody: 0.479 OD490
  OD 490 nm at 1.5625 nM antibody: 0.584 OD490
  OD 490 nm at 3.125 nM antibody: 0.719 OD490
  OD 490 nm at 6.25 nM antibody: 0.981 OD490
  OD 490 nm at 12.5 nM antibody: 1.47 OD490
  OD 490 nm at 25 nM antibody: 1.94 OD490
  OD 490 nm at 50 nM antibody: 2.38 OD490
